Laboratory results published in paper PMC6555819, “Comprehensive study of nuclear receptor DNA binding provides a revised framework for understanding receptor specificity”.

What was measured:
THRa:RXRa = THRa:RXRa (Homo sapiens, UniProt P10827;P19793 full;full); assay: no ligand; PBM; 90 nM : 90 nM RXRa; PBS pH 7.4, 2% milk, 0.02% Triton X-100, 1 mM DTT, BSA, 0.4 mg/ml salmon testes DNA; details: tags: His kept;His cleaved; copies: 1;1; label: surface-attached array probe
PPARa:RXRa = PPARa:RXRa (Homo sapiens, UniProt Q07869;P19793 full;full); assay: no ligand; PBM; 270 nM : 90 nM RXRa; PBS pH 7.4, 2% milk, 0.02% Triton X-100, 1 mM DTT, BSA, 0.4 mg/ml salmon testes DNA; details: tags: GST kept;His cleaved; copies: 1;1; label: surface-attached array probe
Chain of PPARa:RXRa (Q07869 whole entry, chain 1 of 2): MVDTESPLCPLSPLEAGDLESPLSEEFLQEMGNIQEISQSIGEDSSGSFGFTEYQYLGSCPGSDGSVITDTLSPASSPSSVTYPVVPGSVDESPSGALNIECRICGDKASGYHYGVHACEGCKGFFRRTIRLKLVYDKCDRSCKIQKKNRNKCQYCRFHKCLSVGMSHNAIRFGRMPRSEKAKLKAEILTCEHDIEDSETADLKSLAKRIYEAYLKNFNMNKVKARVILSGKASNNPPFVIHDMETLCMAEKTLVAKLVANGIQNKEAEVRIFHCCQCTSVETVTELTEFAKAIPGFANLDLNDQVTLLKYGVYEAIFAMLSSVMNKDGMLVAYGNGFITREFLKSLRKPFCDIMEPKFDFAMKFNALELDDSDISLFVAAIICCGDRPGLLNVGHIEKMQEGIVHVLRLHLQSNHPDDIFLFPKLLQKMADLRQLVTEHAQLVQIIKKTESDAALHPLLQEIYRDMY
Chain of PPARa:RXRa (P19793 whole entry, chain 2 of 2): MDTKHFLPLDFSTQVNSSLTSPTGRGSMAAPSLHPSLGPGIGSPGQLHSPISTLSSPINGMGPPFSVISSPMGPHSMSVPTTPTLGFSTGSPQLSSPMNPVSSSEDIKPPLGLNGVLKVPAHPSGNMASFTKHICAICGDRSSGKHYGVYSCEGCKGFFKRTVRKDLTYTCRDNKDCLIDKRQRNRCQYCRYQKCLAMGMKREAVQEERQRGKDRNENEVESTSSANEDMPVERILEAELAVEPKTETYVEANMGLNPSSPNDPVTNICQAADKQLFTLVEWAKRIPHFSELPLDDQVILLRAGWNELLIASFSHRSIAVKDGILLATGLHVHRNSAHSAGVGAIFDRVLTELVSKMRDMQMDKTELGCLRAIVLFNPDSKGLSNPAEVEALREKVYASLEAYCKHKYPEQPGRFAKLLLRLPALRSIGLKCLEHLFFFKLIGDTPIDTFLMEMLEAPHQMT
Method in brief: (§1)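 Binding z-scores were set against random background probes. The data came from custom Agilent 4×180K protein-binding microarrays carrying double-stranded probes with 34-nt variable regions, incubated 1 h with ligand-free nuclear receptor dimers. Partner-specific antibodies detected binding, and scanned fluorescence was regression-normalized.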

FXR:RXRa = FXR:RXRa (Homo sapiens, UniProt Q96RI1;P19793 full;full); assay: as above; details: tags: His kept;His cleaved; copies: 1;1; label: surface-attached array probe
Chain of FXR:RXRa (Q96RI1 whole entry, chain 1 of 2): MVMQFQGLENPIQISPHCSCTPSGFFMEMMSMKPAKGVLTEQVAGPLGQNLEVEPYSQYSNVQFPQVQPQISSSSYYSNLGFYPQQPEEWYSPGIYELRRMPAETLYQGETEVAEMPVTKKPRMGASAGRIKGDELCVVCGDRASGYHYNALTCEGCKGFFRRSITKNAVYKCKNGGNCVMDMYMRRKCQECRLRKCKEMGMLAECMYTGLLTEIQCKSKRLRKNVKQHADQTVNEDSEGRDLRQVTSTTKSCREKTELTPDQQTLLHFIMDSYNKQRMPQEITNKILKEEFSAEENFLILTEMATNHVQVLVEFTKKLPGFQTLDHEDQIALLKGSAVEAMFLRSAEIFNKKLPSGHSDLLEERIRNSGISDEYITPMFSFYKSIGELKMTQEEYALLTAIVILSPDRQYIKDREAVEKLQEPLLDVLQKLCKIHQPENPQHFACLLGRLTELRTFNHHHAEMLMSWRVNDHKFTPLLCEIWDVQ
Chain of FXR:RXRa (P19793 whole entry, chain 2 of 2): as the sequence (P19793 whole entry, chain 2 of 2) above
Method in brief: as §1

RARg:RXRa = RARg:RXRa (Homo sapiens, UniProt P13631;P19793 full;full); assay: as above; details: tags: His kept;His cleaved; copies: 1;1; label: surface-attached array probe
Chain of RARg:RXRa (P13631 whole entry, chain 1 of 2): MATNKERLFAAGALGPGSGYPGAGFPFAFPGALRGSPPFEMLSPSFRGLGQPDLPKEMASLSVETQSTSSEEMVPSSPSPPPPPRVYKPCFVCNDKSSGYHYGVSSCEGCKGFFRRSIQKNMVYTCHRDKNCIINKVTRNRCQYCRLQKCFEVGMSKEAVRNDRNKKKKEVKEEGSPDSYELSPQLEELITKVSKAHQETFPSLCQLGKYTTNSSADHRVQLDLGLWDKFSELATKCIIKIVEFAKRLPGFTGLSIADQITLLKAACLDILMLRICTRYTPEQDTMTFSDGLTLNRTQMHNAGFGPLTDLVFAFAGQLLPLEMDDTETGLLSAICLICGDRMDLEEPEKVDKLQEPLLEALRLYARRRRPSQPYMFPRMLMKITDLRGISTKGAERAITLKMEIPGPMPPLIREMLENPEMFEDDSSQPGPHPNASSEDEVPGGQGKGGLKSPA
Chain of RARg:RXRa (P19793 whole entry, chain 2 of 2): as the sequence (P19793 whole entry, chain 2 of 2) above
Method in brief: as §1

RARb:RXRa = RARb:RXRa (Homo sapiens, UniProt P10826;P19793 full;full); assay: as above; details: tags: His kept;His cleaved; copies: 1;1; label: surface-attached array probe
Chain of RARb:RXRa (P10826 whole entry, chain 1 of 2): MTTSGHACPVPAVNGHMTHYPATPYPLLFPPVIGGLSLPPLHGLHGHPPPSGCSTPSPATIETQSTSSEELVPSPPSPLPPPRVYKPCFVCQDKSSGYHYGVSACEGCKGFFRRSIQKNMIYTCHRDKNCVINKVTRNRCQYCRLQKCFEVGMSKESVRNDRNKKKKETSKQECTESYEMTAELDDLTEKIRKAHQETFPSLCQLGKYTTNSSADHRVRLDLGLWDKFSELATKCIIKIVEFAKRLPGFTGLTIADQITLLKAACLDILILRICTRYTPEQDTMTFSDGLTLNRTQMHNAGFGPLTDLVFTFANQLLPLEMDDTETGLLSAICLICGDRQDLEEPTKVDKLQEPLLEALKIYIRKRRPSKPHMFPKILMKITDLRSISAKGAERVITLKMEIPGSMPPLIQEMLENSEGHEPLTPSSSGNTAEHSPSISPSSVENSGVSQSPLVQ
Chain of RARb:RXRa (P19793 whole entry, chain 2 of 2): as the sequence (P19793 whole entry, chain 2 of 2) above
Method in brief: as §1

Chain of THRa:RXRa (P10827 other isoform, or with tags, fused parts or gaps, chain 1 of 2): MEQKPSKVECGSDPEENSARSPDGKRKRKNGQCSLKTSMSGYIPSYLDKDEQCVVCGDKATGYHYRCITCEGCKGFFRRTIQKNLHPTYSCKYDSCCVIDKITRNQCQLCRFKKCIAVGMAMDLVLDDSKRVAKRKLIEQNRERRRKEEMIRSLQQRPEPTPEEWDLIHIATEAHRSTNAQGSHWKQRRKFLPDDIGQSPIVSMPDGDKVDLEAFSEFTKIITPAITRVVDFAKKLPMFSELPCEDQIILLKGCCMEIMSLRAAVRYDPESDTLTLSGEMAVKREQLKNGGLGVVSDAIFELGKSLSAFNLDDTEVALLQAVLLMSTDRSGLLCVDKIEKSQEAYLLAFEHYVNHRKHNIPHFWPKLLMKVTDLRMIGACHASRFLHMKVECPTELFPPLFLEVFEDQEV
Chain of THRa:RXRa (P19793 whole entry, chain 2 of 2): as the sequence (P19793 whole entry, chain 2 of 2) above

B1: NRC3_wobSeed120_DR4_G20C_o1 (dsDNA)
DNA 1: GCCCGAGTAGGTTACGAGGCGGCATTCAGTGCGAATGCGATTGACAGCGTAGAATGAAGG
DNA 2: CCTTCATTCTACGCTGTCAATCGCATTCGCACTGAATGCCGCCTCGTAACCTACTCGGGC
binding signal (THRa:RXRa): -0.27 PBM z-score against 500 random probes

B2: NRC3_random_hg19_242_o1 (dsDNA)
DNA 1: GCCAGCAGAGAACCCAGTGGAACATGAGCCTATACAGCGATTGACAGCGTAGAATGAAGG
DNA 2: CCTTCATTCTACGCTGTCAATCGCTGTATAGGCTCATGTTCCACTGGGTTCTCTGCTGGC
binding signal (THRa:RXRa): -0.39 PBM z-score against 500 random probes

B3: NRC3_random_hg19_48_o1 (dsDNA)
DNA 1: GCTAGTCCAGCTGGCTGGAGACTCATGGAAGAACAGGCGATTGACAGCGTAGAATGAAGG
DNA 2: CCTTCATTCTACGCTGTCAATCGCCTGTTCTTCCATGAGTCTCCAGCCAGCTGGACTAGC
binding signal (THRa:RXRa): -1.43 PBM z-score against 500 random probes

B4: NRC3_random_hg19_259_o1 (dsDNA)
DNA 1: GCCCTGAGTCAGTAGAACCAGCTGAGAGATTGGATTGCGATTGACAGCGTAGAATGAAGG
DNA 2: CCTTCATTCTACGCTGTCAATCGCAATCCAATCTCTCAGCTGGTTCTACTGACTCAGGGC
binding signal (THRa:RXRa): -0.45 PBM z-score against 500 random probes

B5: NRC3_random_hg19_446_o1 (dsDNA)
DNA 1: GCACTGAACAACCTGATCCTGAATGACTACAGGGTAGCGATTGACAGCGTAGAATGAAGG
DNA 2: CCTTCATTCTACGCTGTCAATCGCTACCCTGTAGTCATTCAGGATCAGGTTGTTCAGTGC
binding signal (THRa:RXRa): 0.09 PBM z-score against 500 random probes

B6: NRC3_wobSeed88_DR3_C13T_o1 (dsDNA)
DNA 1: GCTAGCCTAGGTTATGCGGGCCAGTATAGTGTCGGCGCGATTGACAGCGTAGAATGAAGG
DNA 2: CCTTCATTCTACGCTGTCAATCGCGCCGACACTATACTGGCCCGCATAACCTAGGCTAGC
binding signal (PPARa:RXRa): 0.03 PBM z-score against 500 random probes
binding signal (THRa:RXRa): 0.05 PBM z-score against 500 random probes

B7: NRC3_wobSeed103_DR4_G21A_o1 (dsDNA)
DNA 1: GCGCATATAGGTAATACAAGATGAAAGTCCGATTGTGCGATTGACAGCGTAGAATGAAGG
DNA 2: CCTTCATTCTACGCTGTCAATCGCACAATCGGACTTTCATCTTGTATTACCTATATGCGC
binding signal (THRa:RXRa): 0.11 PBM z-score against 500 random probes

B8: NRC3_wobSeed112_DR4_G11C_o1 (dsDNA)
DNA 1: GCTAGCCTAGCTCAGATCGGGCCAGTATACGCTATAGCGATTGACAGCGTAGAATGAAGG
DNA 2: CCTTCATTCTACGCTGTCAATCGCTATAGCGTATACTGGCCCGATCTGAGCTAGGCTAGC
binding signal (THRa:RXRa): -0.54 PBM z-score against 500 random probes

B9: NRC3_random_hg19_98_o1 (dsDNA)
DNA 1: GCGCCAGGCTGGTCTCGACCTCCTGACTTTGTGATCGCGATTGACAGCGTAGAATGAAGG
DNA 2: CCTTCATTCTACGCTGTCAATCGCGATCACAAAGTCAGGAGGTCGAGACCAGCCTGGCGC
binding signal (THRa:RXRa): -0.14 PBM z-score against 500 random probes

B10: NRC3_wobSeed121_DR5_G18T_o1 (dsDNA)
DNA 1: GCCAAACTAGGTCACCGTAAGGTCAAAGTCCGCATGGCGATTGACAGCGTAGAATGAAGG
DNA 2: CCTTCATTCTACGCTGTCAATCGCCATGCGGACTTTGACCTTACGGTGACCTAGTTTGGC
binding signal (PPARa:RXRa): 6.59 PBM z-score against 500 random probes
binding signal (THRa:RXRa): 5.33 PBM z-score against 500 random probes

B11: NRC3_wobSeed42_DR1_G9T_o1 (dsDNA)
DNA 1: GCTATACATGGTCAAAGGCCAGAGTACGAATGTCGAGCGATTGACAGCGTAGAATGAAGG
DNA 2: CCTTCATTCTACGCTGTCAATCGCTCGACATTCGTACTCTGGCCTTTGACCATGTATAGC
binding signal (THRa:RXRa): 0.08 PBM z-score against 500 random probes

B12: NRC3_random_hg19_8_o1 (dsDNA)
DNA 1: GCGCTGAAACTGGATCCCTTCCTTACACCTTACACAGCGATTGACAGCGTAGAATGAAGG
DNA 2: CCTTCATTCTACGCTGTCAATCGCTGTGTAAGGTGTAAGGAAGGGATCCAGTTTCAGCGC
binding signal (THRa:RXRa): -0.12 PBM z-score against 500 random probes

B13: NRC3_random_hg19_228_o1 (dsDNA)
DNA 1: GCCACCGTGTTAGCCAGGATGGTCTCGATCTCCTGAGCGATTGACAGCGTAGAATGAAGG
DNA 2: CCTTCATTCTACGCTGTCAATCGCTCAGGAGATCGAGACCATCCTGGCTAACACGGTGGC
binding signal (FXR:RXRa): -0.45 PBM z-score against 500 random probes
binding signal (THRa:RXRa): -1.6 PBM z-score against 500 random probes

B14: NRC3_wobSeed119_DR4_A9T_o1 (dsDNA)
DNA 1: GCGGAACGTGGGCATTCGAGTTGATAGCATGGCGATGCGATTGACAGCGTAGAATGAAGG
DNA 2: CCTTCATTCTACGCTGTCAATCGCATCGCCATGCTATCAACTCGAATGCCCACGTTCCGC
binding signal (THRa:RXRa): 0.25 PBM z-score against 500 random probes

B15: NRC3_random_hg19_166_o1 (dsDNA)
DNA 1: GCAATGACATGATCATAGCTCACTGCAGCCTTGAATGCGATTGACAGCGTAGAATGAAGG
DNA 2: CCTTCATTCTACGCTGTCAATCGCATTCAAGGCTGCAGTGAGCTATGATCATGTCATTGC
binding signal (THRa:RXRa): -0.62 PBM z-score against 500 random probes

B16: NRC3_random_hg19_264_o1 (dsDNA)
DNA 1: GCTCATCAGTCTAATGATGCTGTTGGTCCAGGGAGCGCGATTGACAGCGTAGAATGAAGG
DNA 2: CCTTCATTCTACGCTGTCAATCGCGCTCCCTGGACCAACAGCATCATTAGACTGATGAGC
binding signal (THRa:RXRa): -0.53 PBM z-score against 500 random probes

B17: NRC3_random_hg19_436_o1 (dsDNA)
DNA 1: GCATAGTTTCCAGCTTCATCCATGTCTCTGCAAAGAGCGATTGACAGCGTAGAATGAAGG
DNA 2: CCTTCATTCTACGCTGTCAATCGCTCTTTGCAGAGACATGGATGAAGCTGGAAACTATGC
binding signal (PPARa:RXRa): -0.03 PBM z-score against 500 random probes
binding signal (THRa:RXRa): 0.27 PBM z-score against 500 random probes

B18: NRC3_wobSeed18_DR0_C13G_o1 (dsDNA)
DNA 1: GCGATACAGGGTGAAGGCCAGAGTACGCGTATTGATGCGATTGACAGCGTAGAATGAAGG
DNA 2: CCTTCATTCTACGCTGTCAATCGCATCAATACGCGTACTCTGGCCTTCACCCTGTATCGC
binding signal (RARg:RXRa): 0.44 PBM z-score against 500 random probes
binding signal (THRa:RXRa): 0.38 PBM z-score against 500 random probes

B19: NRC3_wobSeed97_DR4_A6C_o1 (dsDNA)
DNA 1: GCCAACCTAGGTCACGAAAGGTCAAAGTCGAATGACGCGATTGACAGCGTAGAATGAAGG
DNA 2: CCTTCATTCTACGCTGTCAATCGCGTCATTCGACTTTGACCTTTCGTGACCTAGGTTGGC
binding signal (RARb:RXRa): 6.29 PBM z-score against 500 random probes
binding signal (THRa:RXRa): 5.6 PBM z-score against 500 random probes

B20: NRC3_wobSeed102_DR4_G21A_o1 (dsDNA)
DNA 1: GCCCTAGCAGGCCAATCTGGATCACTCAAGGCTTGAGCGATTGACAGCGTAGAATGAAGG
DNA 2: CCTTCATTCTACGCTGTCAATCGCTCAAGCCTTGAGTGATCCAGATTGGCCTGCTAGGGC
binding signal (THRa:RXRa): 0.26 PBM z-score against 500 random probes

B21: NRC3_random_hg19_407_o1 (dsDNA)
DNA 1: GCGAGACATGAGATTTGGTTCTAGCTACACTCTTCAGCGATTGACAGCGTAGAATGAAGG
DNA 2: CCTTCATTCTACGCTGTCAATCGCTGAAGAGTGTAGCTAGAACCAAATCTCATGTCTCGC
binding signal (THRa:RXRa): -0.37 PBM z-score against 500 random probes

B22: NRC3_wobSeed17_DR0_G16A_o1 (dsDNA)
DNA 1: GCATATGTAGGTTAGAGTCATTCAGAAAGTAGGGAAGCGATTGACAGCGTAGAATGAAGG
DNA 2: CCTTCATTCTACGCTGTCAATCGCTTCCCTACTTTCTGAATGACTCTAACCTACATATGC
binding signal (THRa:RXRa): 0.23 PBM z-score against 500 random probes

B23: NRC3_random_hg19_288_o1 (dsDNA)
DNA 1: GCCCTGGTTCAAGCGATTCTCCTGCCTCAGCCTCCTGCGATTGACAGCGTAGAATGAAGG
DNA 2: CCTTCATTCTACGCTGTCAATCGCAGGAGGCTGAGGCAGGAGAATCGCTTGAACCAGGGC
binding signal (THRa:RXRa): 0.5 PBM z-score against 500 random probes

B24: NRC3_wobSeed25_DR1_T25C_o1 (dsDNA)
DNA 1: GCCAAACTAGGTCAAAGGTCAAAGCCGAGCCAACCAGCGATTGACAGCGTAGAATGAAGG
DNA 2: CCTTCATTCTACGCTGTCAATCGCTGGTTGGCTCGGCTTTGACCTTTGACCTAGTTTGGC
binding signal (PPARa:RXRa): 8.1 PBM z-score against 500 random probes
binding signal (THRa:RXRa): 5.19 PBM z-score against 500 random probes

B25: NRC3_wobSeed15_DR0_C13A_o1 (dsDNA)
DNA 1: GCCGAACTAGGTAAAGGACAGTGAATCTCCGCACGCGCGATTGACAGCGTAGAATGAAGG
DNA 2: CCTTCATTCTACGCTGTCAATCGCGCGTGCGGAGATTCACTGTCCTTTACCTAGTTCGGC
binding signal (THRa:RXRa): 0.15 PBM z-score against 500 random probes

B26: NRC3_random_hg19_78_o1 (dsDNA)
DNA 1: GCTATGACTGGTTACACTGGAAACCTAGAATGAACAGCGATTGACAGCGTAGAATGAAGG
DNA 2: CCTTCATTCTACGCTGTCAATCGCTGTTCATTCTAGGTTTCCAGTGTAACCAGTCATAGC
binding signal (THRa:RXRa): 0.42 PBM z-score against 500 random probes

B27: NRC3_random_hg19_82_o1 (dsDNA)
DNA 1: GCCATACAGACTCTAGTCATTTCAAATGTTCTTGCTGCGATTGACAGCGTAGAATGAAGG
DNA 2: CCTTCATTCTACGCTGTCAATCGCAGCAAGAACATTTGAAATGACTAGAGTCTGTATGGC
binding signal (THRa:RXRa): 0.12 PBM z-score against 500 random probes

B28: NRC3_random_hg19_26_o1 (dsDNA)
DNA 1: GCACTCAATACACCAAAGCACATCCTCATCAGACTCGCGATTGACAGCGTAGAATGAAGG
DNA 2: CCTTCATTCTACGCTGTCAATCGCGAGTCTGATGAGGATGTGCTTTGGTGTATTGAGTGC
binding signal (THRa:RXRa): 0.33 PBM z-score against 500 random probes
